Results on four molecules are retold here after patent US20190271705A1 (UNIVERSITY OF WESTERN ONTARIO, published 2019).

Some results are limits rather than exact numbers.

The target in assay [1] is T1, EGF receptor (EGFR) (UniProt P00533 25-1210, tyrosine-phosphorylated in the C-terminal tail (cells treated with EGF and pervanadate); sites not stated).
T1 construct: Endogenous receptor of HEK 293 cells; detected with an anti-EGFR rabbit polyclonal antibody; also called epidermal growth factor receptor
The assay can be described thus: co-immunoprecipitation from HEK 293 cells.

Assay [2] deals with T1, EGF receptor (EGFR). The assay can be described thus: co-immunoprecipitation from HEK 293 cells, anti-GFP and anti-EGFR antibodies.
Procedure: HEK 293 cells were lysed with cold lysis buffer (1% NP-40, 50 mM Tris-HCl pH 7.4, 150 mM NaCl, 2 mM EDTA, 50 mM NaF, 10% Glycerol and protease inhibitor cocktail diluted at 1:1000). After centrifugation at 13,000*g for 15 min, the supernatants were collected. After clearance of the lysate with appropriate pre-immune serum and protein G (Roche), immnuoprecipitation (IP) and immunoblotting (IB) were performed.
A further assay deals with T2, EGFR-pY978 peptide.
T2 construct: Synthetic pTyr-containing peptide
The assay can be described thus: fluorescence polarization in solution; reference wild-type Fyn SH2 domain. (In general: Polarisation of emitted light reports the rotation of a fluorescent probe.)

Procedure for EGFR-pY978 peptide: Measurements of fluorescence polarization were conducted by titrating the SH2 domain concentration, while keeping the peptide concentration constant. Kd values were calculated with the GraphPad Prism software, by assuming the one-site binding model (GraphPad Software).

B1: A8V/S10A/K15L variant Grb2 SH2 domain expressed as a GFP-fusion protein in HEK 293 cells (designed binder)
chain: MKPHPWFFGKIPRAKAEEMLSKQRHDGAFLIRESESVPGDFALSVKFGNDVQHFLVLRDGAGKYFLWVVKFNSLNELVDYHRSTSVSRNQQIFLRDIEQVPQQP
notes: also called TrM Grb2 SH2 domain; 8V/10A/15L-substituted Grb2 SH2 domain; not shown: GFP encoded by the pEGFPC2 vector (Clontech)
Regarding B1, the binding result in the assay with EGF receptor (EGFR) [1] is recorded as “binds”.

B2: wild-type Fyn SH2 domain expressed as a GFP-fusion protein in HEK 293 cells (other, human, UniProt P06241 139-249, looked up)
chain: APVDSIQAEEWYFGKLGRKDAERQLLSFGNPRGTFLIRESETTKGAYSLSIRDWDDMKGDHVKHYKIRKLDNGGYYITTRAQFETLQQLVQHYSERAAGLCCRLVVPCHKG
notes: domain: SH2 domain; also called Wt Fyn SH2 domain; Wt; not shown: GFP encoded by the pEGFPC2 vector (Clontech)
On to B2, for which the binding result in the assay with EGF receptor (EGFR) [2] is recorded as “no binding”.

B3: T8V/C10A/K15L variant Src SH2 domain expressed as a GFP-fusion protein in HEK 293 cells (designed binder)
chain: DSIQAEEWYFGKITRRESERLLLNAENPRGTFLVRESETVKGAYALSVSDFDNAKGLNVKHYLIRKLDSGGFYITSRTQFNSLQQLVAYYSKHADGLCHRLTTVCPTSK
notes: domain: SH2 domain; also called TrM Src SH2 domain; 8V/10A/15L-substituted Src SH2 domain; not shown: GFP encoded by the pEGFPC2 vector (Clontech)
Take B3: the binding result with EGF receptor (EGFR) [1] is given as “binds”.

B4: T8V/S10A/K15L variant Fyn SH2 domain (designed binder)
chain: MKIEEHHHHHHSSGRENLYFQGGAAQPAAPVDSIQAEEWYFGKLGRKDAERQLLSFGNPRGTFLIRESETVKGAYALSIRDWDDMKGDHVKHYLIRKLDNGGYYITTRAQFETLQQLVQHYSERAAGLSSRLVVPSHKGAAA
On to B4, for which the “fold affinity increase (Kd[wild-type] divided by Kd[variant])” value with EGFR-pY978 peptide is greater than 1000 fold.
